# System: growth of yeast strains under 51 stress conditions
# Test: Growth assays in 51 stress conditions (Fig. 1E-F, S2D, S5B)
# Assay type: cell-based, Saccharomyces cerevisiae
# Parameters: key to Growth (Fig. S2D) / growth of ABP1 SH3-swapped strains in stress condition: log2 colony size, average of median per strain (growth score)
# Conditions: ABP1 SH3-swapped strains
# Outline: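 Colony sizes at 74 h on 51 stress media (37 °C) were log2 transformed, corrected for plate effects, and averaged across two plates as per-plate medians (growth score). Strains arrayed in 12 replicates with WT border, grown first on YPD for two days at 30 °C.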
molecule,measurement,setting,value
"HOF1 (protein, UniProt Q05080 1-669, looked up) Cytokinesis protein 2: MSYSYEACFWDPNDNGVNILLGHISQGIRSCDSMILFFKQRSELEKDYARRLGAITGKLDKDIGTNMDYGKLNETFNVVLSVEKARAQSHSKQSEILFRQIYTDTKAFAANLQARYTTLSGKIERLRMDKFNKKKGCEVLQKKLQDAQIRFRDLQLNENNMIGAKRVEHNKRELLKWESNSQEYKVQLDVLKQEYKASQKFWIHEWAQLSCELQEMENARISFLQSKLQQFATSSMETYILEQTKMDMLTNHLNSFTAADEISTFSKENGTGRLKHKTSKGDMNSSANWAQMSSISTTSKKTESYMDNIRKLSSQLKETENKRKLASIDKYEKPLPSPEVTMATQFRNSTPVIRNETKVVANPTLSLRSSPVQLQSNVDDSVLRQKPDKPRPIVGEEQLKPDEDSKNPDEKGLMVHKRNQSLSSPSESSSSNPTDFSHIKKRQSMESMTTSVSSMANSIDDSQRFAKSWNSSNRKRKSMSHLQVPSSASSRSDDGGRTPNSAHNLNEDDYNTRRDTSTSTILFKPPVAVRGTSRGHTHRQSMIMQDSSNPIEDALYEMERIQSSSKPGTKTGNIMDERGVVRDRGITVTLPIVTSEGFPVIEYAKAMYPLIGNEAPGLANFHKGDYLLITEIVNKDWYKGEVYDNDRIDRNHRIGLIPYNFIQLLHQGL",Growth (Fig. S2D),Bathophenanthroline.0.1uM,10.8727
same,Growth (Fig. S2D),Bathophenanthroline.10uM,10.6716
same,Growth (Fig. S2D),Bathophenanthroline.1uM,10.8166
same,Growth (Fig. S2D),CaCl2.100mM,10.8864
same,Growth (Fig. S2D),CaCl2.250mM,10.8461
same,Growth (Fig. S2D),CaCl2.500mM,10.3385
same,Growth (Fig. S2D),Caffein.10mM,10.1794
same,Growth (Fig. S2D),Caffein.2mM,11.0235
same,Growth (Fig. S2D),CdCl2.100uM,9.561
same,Growth (Fig. S2D),CdCl2.10uM,10.9284
same,Growth (Fig. S2D),CdCl2.50uM,9.924
same,Growth (Fig. S2D),CuSO4.1mM,10.5096
same,Growth (Fig. S2D),CuSO4.5mM,8.102
same,Growth (Fig. S2D),Cycloheximide.0.05.uM,11.0987
same,Growth (Fig. S2D),Cycloheximide.0.2.uM,10.6706
same,Growth (Fig. S2D),Cycloheximide.0.5.uM,10.177
same,Growth (Fig. S2D),DMSO.2.,11.0794
same,Growth (Fig. S2D),DMSO.6.,9.956
same,Growth (Fig. S2D),DMSO.8.,9.269
same,Growth (Fig. S2D),Ethanol.2.,10.828
same,Growth (Fig. S2D),Ethanol.6.,10.3088
same,Growth (Fig. S2D),Ethanol.8.,10.1098
same,Growth (Fig. S2D),Galactose.2.,10.8257
same,Growth (Fig. S2D),Glycerol.2.,9.711
same,Growth (Fig. S2D),Hydroxyurea.25mM,10.8274
same,Growth (Fig. S2D),Hygromycin.190uM,11.0188
same,Growth (Fig. S2D),Hygromycin.19uM,11.0238
same,Growth (Fig. S2D),Hygromycin.95uM,11.0846
same,Growth (Fig. S2D),MMS.0.004.,10.9957
same,Growth (Fig. S2D),MMS.0.02.,10.7428
same,Growth (Fig. S2D),MMS.0.04.,9.974
same,Growth (Fig. S2D),Menadione.100uM,10.6873
same,Growth (Fig. S2D),Menadione.200uM,10.4637
same,Growth (Fig. S2D),Menadione.50uM,10.8466
same,Growth (Fig. S2D),NaCl.0.25M,10.8422
same,Growth (Fig. S2D),NaCl.1M,9.66
same,Growth (Fig. S2D),Nitroquinoline.10uM,10.7373
same,Growth (Fig. S2D),Nitroquinoline.50uM,10.5646
same,Growth (Fig. S2D),Nystatin.0.01uM,10.9834
same,Growth (Fig. S2D),Nystatin.0.1uM,10.9984
same,Growth (Fig. S2D),Raffinose.2.,11.035
same,Growth (Fig. S2D),Rapamycin.10nM,9.895
same,Growth (Fig. S2D),Rapamycin.50nM,9.528
same,Growth (Fig. S2D),SC.pH3,10.4278
same,Growth (Fig. S2D),SC.pH6,10.9986
same,Growth (Fig. S2D),SDS.0.01.,11.0079
same,Growth (Fig. S2D),SDS.0.02.,11.0441
same,Growth (Fig. S2D),SDS.0.05.,10.886
same,Growth (Fig. S2D),Sorbitol.10mM,11.0139
same,Growth (Fig. S2D),Sorbitol.1mM,11.1055
same,Growth (Fig. S2D),Sorbitol.5mM,10.9626
"FUS1 (protein, UniProt P11710 1-512, looked up) Nuclear fusion protein FUS1: MVATIMQTTTTVLTTVAAMSTTLASNYISSQASSSTSVTTVTTIATSIRSTPSNLLFSNVAAQPKSSSASTIGLSIGLPIGIFCFGLLILLCYFYLKRNSVSISNPPMSATIPREEEYCRRTNWFSRLFWQSKCEDQNSYSNRDIEKYNDTQWTSGDNMSSKIQYKISKPIIPQHILTPKKTVKNPYAWSGKNISLDPKVNEMEEEKVVDAFLYTKPPNIVHIESSMPSYNDLPSQKTVSSKKTALKTSEKWSYESPLSRWFLRGSTYFKDYGLSKTSLKTPTGAPQLKQMKMLSRISKGYFNESDIMPDERSPILEYNNTPLDANDSVNNLGNTTPDSQITSYRNNNIDLITARPHSVIYGTTAQQTLETNFNDHHDCNKSTEKHELIIPTPSKPLKKRKKRRQSKMYQHLQHLSRSKPLPLTPNSKYNGEASVQLGKTYTVIQDYEPRLTDEIRISLGEKVKILATHTDGWCLVEKCNTQKGSIHVSVDDKRYLNEDRGIVPGDCLQEYD",Growth (Fig. S2D),Bathophenanthroline.0.1uM,10.7893
same,Growth (Fig. S2D),Bathophenanthroline.10uM,10.6947
same,Growth (Fig. S2D),Bathophenanthroline.1uM,10.778
same,Growth (Fig. S2D),CaCl2.100mM,10.8206
same,Growth (Fig. S2D),CaCl2.250mM,10.8008
same,Growth (Fig. S2D),CaCl2.500mM,10.319
same,Growth (Fig. S2D),Caffein.10mM,10.109
same,Growth (Fig. S2D),Caffein.2mM,11.0074
same,Growth (Fig. S2D),CdCl2.100uM,9.381
same,Growth (Fig. S2D),CdCl2.10uM,10.9194
same,Growth (Fig. S2D),CdCl2.50uM,9.89
same,Growth (Fig. S2D),CuSO4.1mM,10.4955
same,Growth (Fig. S2D),CuSO4.5mM,8.084
same,Growth (Fig. S2D),Cycloheximide.0.05.uM,11.1072
same,Growth (Fig. S2D),Cycloheximide.0.2.uM,10.666
same,Growth (Fig. S2D),Cycloheximide.0.5.uM,10.227
same,Growth (Fig. S2D),DMSO.2.,11.051
same,Growth (Fig. S2D),DMSO.6.,9.944
same,Growth (Fig. S2D),DMSO.8.,9.179
same,Growth (Fig. S2D),Ethanol.2.,10.7876
same,Growth (Fig. S2D),Ethanol.6.,10.3273
same,Growth (Fig. S2D),Ethanol.8.,10.1194
same,Growth (Fig. S2D),Galactose.2.,10.7919
same,Growth (Fig. S2D),Glycerol.2.,9.646
same,Growth (Fig. S2D),Hydroxyurea.25mM,10.8071
same,Growth (Fig. S2D),Hygromycin.190uM,11.0027
same,Growth (Fig. S2D),Hygromycin.19uM,11.0061
same,Growth (Fig. S2D),Hygromycin.95uM,11.0532
same,Growth (Fig. S2D),MMS.0.004.,10.9625
same,Growth (Fig. S2D),MMS.0.02.,10.7139
same,Growth (Fig. S2D),MMS.0.04.,10.0597
same,Growth (Fig. S2D),Menadione.100uM,10.6065
same,Growth (Fig. S2D),Menadione.200uM,10.4266
same,Growth (Fig. S2D),Menadione.50uM,10.8061
same,Growth (Fig. S2D),NaCl.0.25M,10.6954
same,Growth (Fig. S2D),NaCl.1M,9.8389
same,Growth (Fig. S2D),Nitroquinoline.10uM,10.6415
same,Growth (Fig. S2D),Nitroquinoline.50uM,10.6237
same,Growth (Fig. S2D),Nystatin.0.01uM,11.0226
same,Growth (Fig. S2D),Nystatin.0.1uM,11.0679
same,Growth (Fig. S2D),Raffinose.2.,11.0059
same,Growth (Fig. S2D),Rapamycin.10nM,9.886
same,Growth (Fig. S2D),Rapamycin.50nM,9.356
same,Growth (Fig. S2D),SC.pH3,10.3927
same,Growth (Fig. S2D),SC.pH6,11.04
same,Growth (Fig. S2D),SDS.0.01.,10.9614
same,Growth (Fig. S2D),SDS.0.02.,10.9777
same,Growth (Fig. S2D),SDS.0.05.,10.8408
same,Growth (Fig. S2D),Sorbitol.10mM,10.9835
same,Growth (Fig. S2D),Sorbitol.1mM,11.0132
same,Growth (Fig. S2D),Sorbitol.5mM,10.8904

# From PMC7954794, “Protein context shapes the specificity of SH3 domain-mediated interactions in vivo” (Nature Communications, 2021)
